Consider 4 molecules from publication PMC11190991, “Encapsulation of Transketolase into In Vitro-Assembled Protein Nanocompartments Improves Thermal Stability” (ACS Applied Bio Materials, 2024).

One may read the stoichiometry N as a count of units in the complex or per binding partner.

In series [1] the target is E. coli transketolase with C-terminal T. maritima cargo loading peptide (E. coli | T. maritima).
For series [2], the target named is Thermotoga maritima encapsulin (T = 1 capsid shell) (Thermotoga maritima) (UniProt Q9WZP2). The series is described as follows: SEC; in vitro loading during reassembly (10 μM encapsulin monomer, cargo at stated molar ratio), SEC on Superose 6 to remove non-encapsulated cargo, co-eluted cargo seen by SDS-PAGE and quantified by densitometry against standard curves.

Series [3] deals with Myxococcus xanthus encapsulin (T = 1 and T = 3 capsid shells) (Myxococcus xanthus) (UniProt Q1D6H4). The series is described as follows: co-purification after co-expression + SDS-PAGE densitometry; in vivo loading: sfGFP-CLP co-expressed with Strep-tagged encapsulin in E. coli, capsids purified (SEC purified samples), cargo quantified by SDS-PAGE densitometry; single experiment.

The target is the same in series [4]. The series is described as follows: SEC; in vitro loading during reassembly (10 μM encapsulin monomer, cargo at stated molar ratio), SEC on Superose 6 to remove non-encapsulated cargo, co-eluted cargo seen by SDS-PAGE and quantified by densitometry against standard curves. On the technique in general: SEC sorts molecules by how far they enter the pores of the column.

The target in series [5] is Thermotoga maritima encapsulin (T = 1 capsid shell) (Thermotoga maritima) (UniProt Q9WZP2). The experiment in a line: co-purification after co-expression + SDS-PAGE densitometry; in vivo loading: sfGFP-CLP co-expressed with Strep-tagged encapsulin in E. coli, capsids purified (SEC purified samples), cargo quantified by SDS-PAGE densitometry; single experiment.
The target in a further series is Q9WZP2. The series is described as follows: SEC; Superose 6 10/300 GL, 20 mM Tris-Cl, 50 mM NaCl, pH 7.5; A280 peak area of higher-order structures after reassembly against before disassembly; Tm_encap from 0.15 M NaOH, Mx_encap from 8 M urea.
Series [6] deals with the molecule itself. The series is described as follows: native gel or EMSA; BN-PAGE of samples disassembled in denaturant: 6 M GuHCl, 8 M urea (20 mM Tris-Cl pH 7.5), 0.15 M HCl pH 1.0 or 0.15 M NaOH pH 13.0.

Turning to “E. coli transketolase with C-terminal T. maritima cargo loading peptide (enzyme)”, in series [1], the end-point transketolase activity (erythrulose from HPA and GA) of TK-TmCLP encapsulated in Tm encap, against free TK (100%) worked out at 50 % drop. In addition, the stoichiometry N (dimers per capsid) in series [2] was determined as 2.6.

On to “superfolder GFP with C-terminal M. xanthus cargo loading peptide”, for which the results for the stoichiometry N (copies per capsid) in series [3] and in series [4] were 31 and 20, respectively.

As to “superfolder GFP with C-terminal T. maritima cargo loading peptide”, in series [5], the stoichiometry N (molecules per capsid) amounted to 2.94. The stoichiometry N (copies per capsid) in series [2] was found to be 15.

B1: Thermotoga maritima encapsulin (T = 1 capsid shell) (natural protein, UniProt Q9WZP2 1-265, looked up)
chain: MEFLKRSFAPLTEKQWQEIDNRAREIFKTQLYGRKFVDVEGPYGWEYAAHPLGEVEVLSDENEVVKWGLRKSLPLIELRATFTLDLWELDNLERGKPNVDLSSLEETVRKVAEFEDEVIFRGCEKSGVKGLLSFEERKIECGSTPKDLLEAIVRALSIFSKDGIEGPYTLVINTDRWINFLKEEAGHYPLEKRVEECLRGGKIITTPRIEDALVVSERGGDFKLILGQDLSIGYEDREKDAVRLFITETFTFQVVNPEALILLKF
notes: T = 1 capsid, 1.97 MDa; also called T. maritima encapsulin; source: E. coli BL21 Star (DE3), purified (Strep-TactinXT); disassembled and reassembled in vitro; also co-expressed with sfGFP-TmCLP for in vivo loading; not shown: Strep-Tag II (after a GSG linker), C-terminal, kept; copies: 60
B1: the “recovery of higher-order structures after reassembly (SEC peak area, 8-14 mL)” value with Q9WZP2 was “we determined the recovery to be 82%”. In series [6], the “stoichiometry N” value came out at 2.
